Test system: m3C_FRET substrate (m3C-containing DNA)
Assay: Stopped-flow FRET pre-steady-state kinetics of m3C DNA demethylation
Format: biochemical
Details: for k1 × 10^−6 / k2 / k3 / kr (irreversible step of substrate hydroxylation) / k−1 / k−2 / k−3 / Kd: global fitting of SF data to Scheme 1; for Kd: read-out: Kd^Product (equilibrium dissociation constant of the enzyme–product complex); for Ka = K1 + K1 × K2 + K1 × K2 × K3: overall affinity for damaged DNA, Ki = ki/k−i
From the text: In previous research, we employed a stopped-flow (SF) method to detect conformational changes in the dioxygenases AlkB and ALKBH2, as well as their substrates, throughout the catalytic cycle. The SF technique provides excellent opportunities for studying the conformational dynamics of protein–nucleic acid complexes under pre-steady-state conditions within the millisecond time range. Conformational transitions are typically detected by measuring the fluorescent signal from the tryptophan residues of the enzyme or fluorescent labels incorporated into the DNA substrate sequence. […] It should be noted that another common approach to detecting conformational dynamics based on measurement of the intrinsic Trp fluorescence of ALKBH3 was unsuccessful due to a low signal-to-noise ratio. The time-dependent FRET signal profiles following rapid (1 ms) mixing of equimolar amounts of enzyme and the m3C_FRET substrate in the presence of Fe(II) and 2OG ligands were obtained under near single-turnover conditions (Figure 3). […] In the case of the wt protein, the initial stage of the enzyme–substrate interaction was accompanied by a slight increase in the FRET signal between 20 ms and 2 s. Subsequently, from 10 s to 250 s, a significant quenching of fluorescence occurs, followed by stabilization at a constant level. The kinetic curve obtained for the Y143F mutant was similar to wt ALKBH3, except that the phase of decrease in the signal was shifted towards longer time scales (20–600 s).
For wt and Y143F ALKBH3, a series of SF traces were recorded across a range of m3C substrate concentrations from 0.5 to 4.0 µM (Figure 4). […] Additionally, a slight increase in signal, absent in the native protein, is discernible in the initial segment (1–5 ms) of the curves for Y143F ALKBH3, most likely indicative of the primary enzyme–substrate binding.
Table 1 summarizes the values of the rate constants describing the forward and reverse reactions of the mechanism, as well as the equilibrium dissociation constant of the enzyme–product complex. […] Subsequent isomerization of the enzyme–substrate complex is characterized by two equilibrium steps, which occur at half the rate in wt ALKBH3, yet with greater efficiency than for the Y143F protein. To assess the overall affinity of ALKBH3’s active site for damaged DNA, the equilibrium constant Ka = K1 + K1 × K2 + K1 × K2 × K3, where Ki = ki/k−i, was determined. […] In contrast, the rate of the step of irreversible hydroxylation of the methyl group by the native protein (kr^wt = 0.023 s^−1) is nearly twice as fast as that of the Y143F mutant (kr^Y143F = 0.013 s^−1). Furthermore, the equilibrium dissociation constant of the enzyme–product complex (Kd^Product) is almost an order of magnitude higher for wt ALKBH3. […] The substitution of Tyr143 with Phe leads to a reduction in the rate and efficiency of demethylation of the m3C substrate, likely due to perturbations in the structure of the catalytically competent complex and strong product binding, which complicates the enzyme’s transition to the next turnover.
Figure 3 Time courses of the FRET signal generated by the FAM/BHQ1 pair under interactions of wt, Y143F, Y143A, L177A, and H191A ALKBH3 with m3C-containing DNA. The fluorescence traces represent changes in the FRET signal after rapid mixing of 1.5 µM m3C_FRET substrate with 1.5 µM protein in the presence of 40 µM Fe(II) and 1 mM 2OG. Each curve was collected in a split mode within four time intervals (up to 0.1, 1, 50, and 500 or 1000 s) in 4–5 replicates.
Figure 4 Pre-steady-state kinetics of m3C-containing DNA demethylation by wt (A) and Y143F (B) ALKBH3 proteins.

Row | k1 (formation of the primary enzyme–substrate complex) [M⁻¹ s⁻¹] | Kd [nM] | Molecule | k1 × 10^−6 [M^−1 s^−1] | k2 [s⁻¹] | k3 [s⁻¹] | kr (irreversible step of substrate hydroxylation) [s⁻¹] | k−1 [s⁻¹] | k−2 [s⁻¹] | k−3 [s⁻¹] | kr (irreversible step of substrate hydroxylation) (listed as wt) [s⁻¹] | Ka = K1 + K1 × K2 + K1 × K2 × K3 | kr (irreversible step of substrate hydroxylation) (listed as Y143F) [s⁻¹]
1 | 9.4e+07 | 720 | wt ALKBH3: wild-type human Fe(II)/2OG-dependent dioxygenase ALKBH3 with N-terminal His-tag, expressed in E. coli (protein, UniProt Q96Q83 1-286, looked up, N-terminal His-tag, wild-type human Fe(II)/2OG-dependent dioxygenase ALKBH3 with N-terminal His-tag, expressed in E. coli) Alpha-ketoglutarate-dependent …: MEEKRRRARVQGAWAAPVKSQAIAQPATTAKSHLHQKPGQTWKNKEHHLSDREFVFKEPQQVVRRAPEPRVIDREGVYEISLSPTGVSRVCLYPGFVDVKEADWILEQLCQDVPWKQRTGIREDITYQQPRLTAWYGELPYTYSRITMEPNPHWHPVLRTLKNRIEENTGHTFNSLLCNLYRNEKDSVDWHSDDEPSLGRCPIIASLSFGATRTFEMRKKPPPEENGDYTYVERVKIPLDHGTLLIMEGATQADWQHRVPKEYHSREPRVNLTFRTVYPDPRGAPW | 19 ± 3 | 2.9 ± 0.9 | 0.57 ± 0.12 | 0.023 ± 0.003 | 64 ± 5 | 2.8 ± 0.5 | 0.13 ± 0.01 | 0.023 | (1.9 ± 0.2) × 10^6 M^−1 | –
2 | 1.9e+07 | 83 | Y143F ALKBH3: ALKBH3 mutant, Tyr143 replaced with Phe (protein, UniProt Q96Q83 1-286, looked up, variant Y143F) Alpha-ketoglutarate-dependent …: MEEKRRRARVQGAWAAPVKSQAIAQPATTAKSHLHQKPGQTWKNKEHHLSDREFVFKEPQQVVRRAPEPRVIDREGVYEISLSPTGVSRVCLYPGFVDVKEADWILEQLCQDVPWKQRTGIREDITYQQPRLTAWYGELPYTFSRITMEPNPHWHPVLRTLKNRIEENTGHTFNSLLCNLYRNEKDSVDWHSDDEPSLGRCPIIASLSFGATRTFEMRKKPPPEENGDYTYVERVKIPLDHGTLLIMEGATQADWQHRVPKEYHSREPRVNLTFRTVYPDPRGAPW | 94 ± 3 | 6.1 ± 1.4 | 1.4 ± 0.1 | 0.013 ± 0.001 | 270 ± 26 | 7.7 ± 0.24 | 0.48 ± 0.03 | – | (1.4 ± 0.1) × 10^6 M^−1 | 0.013
